From paper doi:10.1101/2023.07.22.550149
One block for each substance: values may come before it.

Columns and labels:
Assay in all cases: cryo-EM structure
[1] = target: sodium selective channelrhodopsin HcCCR from H. catenoides (Hyphochytrium catenoides)
[2] = target: H. catenoides kalium channelrhodopsin (HcKCR1), wildtype (Hyphochytrium catenoides)
[3] = target: higher potassium selective channelrhodopsin (B1ChR2) from Bilabrum sp (Bilabrum sp)

- stoichiometry N [1]: 3
Substance: sodium selective channelrhodopsin HcCCR from H. catenoides (natural protein)

- stoichiometry N [2]: 3
Substance: H. catenoides kalium channelrhodopsin (HcKCR1), wildtype (natural protein)

- stoichiometry N [3]: 3
Substance: higher potassium selective channelrhodopsin (B1ChR2) from Bilabrum sp (natural protein)
